Data from article PMC3556779.

Biological target: FKBP1A (UniProt P62942)
Assay: co-precipitation from transfected Jurkat cells
Conditions: reference: WT TGFβRI; sites T200

- binding against the reference: stronger
Substance: TGFβRI (from UniProt P36897) T200V TGFβRI
